The test deals with PD-L1 CAR (2nd generation CAR, PDL1-CD28-CD3ζ) expressed on NK-92 cells (human) (UniProt P01732). Description: cell-based or functional assay.
Sequence of UniProt P01732 (P01732 other isoform, or with tags, fused parts or gaps limits assumed): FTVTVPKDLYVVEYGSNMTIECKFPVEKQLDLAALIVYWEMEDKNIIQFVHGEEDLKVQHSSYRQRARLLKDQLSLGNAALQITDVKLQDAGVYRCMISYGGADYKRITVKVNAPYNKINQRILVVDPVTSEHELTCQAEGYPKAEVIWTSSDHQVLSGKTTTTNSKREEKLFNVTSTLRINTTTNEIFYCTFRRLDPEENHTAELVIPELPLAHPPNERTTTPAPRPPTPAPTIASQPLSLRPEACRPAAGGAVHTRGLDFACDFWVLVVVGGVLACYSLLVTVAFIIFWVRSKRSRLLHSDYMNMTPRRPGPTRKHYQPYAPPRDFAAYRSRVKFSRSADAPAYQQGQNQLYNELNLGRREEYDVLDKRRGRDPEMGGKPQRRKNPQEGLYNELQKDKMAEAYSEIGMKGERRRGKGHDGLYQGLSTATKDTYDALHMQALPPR

“recombinant human PD-1-Fc fusion protein (rhPD-1-Fc) (from UniProt Q15116 25-167)”: the EC50 of degranulation of CAR NK-92 over increasing concentrations of plate-bound rhPD-1-Fc was 0.61 µg/mL.

For the origin of these results see US20240216509A1.
